# Test results published in the supplement of paper PMC9170038.
# Tested on: K4 kissing-loop RNA reporter
# Experiment: apparent KD of K4 kissing-loop reporter; higher = weaker reporter binding
# Conditions: Eterna round: R107
# Description: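 RNA-MaP round R107: designed RNA switches with theophylline, tryptophan, arginine or FMN aptamers are transcribed on-chip within common flanks. They are titrated with a labelled K4 kissing-loop RNA reporter in RNA-MaP buffer (100 mM Tris pH 7.5, 80 mM KCl, 4 mM MgCl2), without ligand or with the indicated ligand. Median apparent KD per design.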
# [1] = input ligand: theophylline 20 uM
# [2] = input ligand: tryptophan 2.4 mM
# 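Further: bound reporter read as fluorescence of individual clusters on recovered sequencing chips by microscopy, with normalized cluster intensities fitted with a binding model.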
sequence,measurement,setting,value
UGCAUGCUUGUAGUGAUGUUACAAGAUGAUACCAGUGCUUUUUUGCACCCUUGGCAGCGUCAUAGUGCAUGCACGUCGAAAGACG,apparent KD of K4 kissing-loop reporter,input ligand: FMN 200 uM,219 nM
same,apparent KD of K4 kissing-loop reporter,input ligand: arginine 13.2 mM,153 nM
same,apparent KD of K4 kissing-loop reporter,input ligand: none,211 nM
same,apparent KD of K4 kissing-loop reporter,[1],320 nM
same,apparent KD of K4 kissing-loop reporter,[2],201 nM
GCACUGAAGUGAUGUUUUUGUGCACGUUGAAAGGAUAUCUGCUUGUAGAGAAGGUUCUGUUUGUGCGGAGCGGGCGUUACCGGCA [theeternabot_exclusion_KL_FMN_A_32],apparent KD of K4 kissing-loop reporter,input ligand: FMN 200 uM,307 nM
same,apparent KD of K4 kissing-loop reporter,input ligand: arginine 13.2 mM,269 nM
same,apparent KD of K4 kissing-loop reporter,input ligand: none,310 nM
same,apparent KD of K4 kissing-loop reporter,[1],285 nM
same,apparent KD of K4 kissing-loop reporter,[2],308 nM
UAAUUGCAGUGAUGUUGCAAAUGUCCUGACUAGGAUAUCAGGAAACUGAGAAGGAGUCCCUUCUAUUGCAACAAGAAGGAGGAUA [KL-SSFMN-A14],apparent KD of K4 kissing-loop reporter,input ligand: FMN 200 uM,312 nM
same,apparent KD of K4 kissing-loop reporter,input ligand: arginine 13.2 mM,300 nM
same,apparent KD of K4 kissing-loop reporter,input ligand: none,347 nM
same,apparent KD of K4 kissing-loop reporter,[1],338 nM
same,apparent KD of K4 kissing-loop reporter,[2],287 nM
AAAAUAAACCAGUGAUGUUGGUAGCCAGAUACCAGCGACGAAAGUCGCCCUUGGCAGCUGUGGACGUACAAAAUAAGUACGUCCU,apparent KD of K4 kissing-loop reporter,input ligand: FMN 200 uM,248 nM
same,apparent KD of K4 kissing-loop reporter,input ligand: arginine 13.2 mM,232 nM
same,apparent KD of K4 kissing-loop reporter,input ligand: none,268 nM
same,apparent KD of K4 kissing-loop reporter,[1],238 nM
same,apparent KD of K4 kissing-loop reporter,[2],230 nM
UCACGUGCCAGUGAUGUUGGCGUACGUGAUACCAGAACAAUAAAGUUCCCUUGGCAGCACAAAUAUGCCAAGUUAGAUGUAUGAU [Exclusion Theophylline A GF 3],apparent KD of K4 kissing-loop reporter,input ligand: FMN 200 uM,121 nM
same,apparent KD of K4 kissing-loop reporter,input ligand: arginine 13.2 mM,118 nM
same,apparent KD of K4 kissing-loop reporter,input ligand: none,123 nM
same,apparent KD of K4 kissing-loop reporter,[1],119 nM
same,apparent KD of K4 kissing-loop reporter,[2],113 nM
ACGUCAUCAAAAGGAUAUGCAUCGAAGUGAUGUUUCGUCAUAUCAGUCUGAUUGCAGCAAUUAGGAGCAGAAGGUUUAGUCCGGU [theeternabot_exclusion_KL_FMN_B_11],apparent KD of K4 kissing-loop reporter,input ligand: FMN 200 uM,91.6 nM
same,apparent KD of K4 kissing-loop reporter,input ligand: arginine 13.2 mM,80.7 nM
same,apparent KD of K4 kissing-loop reporter,input ligand: none,91.9 nM
same,apparent KD of K4 kissing-loop reporter,[1],77.6 nM
same,apparent KD of K4 kissing-loop reporter,[2],83.1 nM
AACAGCAAUGCGGCCGCCACUUCGAGGUCAGUGAUGUUGACGGAAUUAAAUAAAGAUCCCAAGAGGAGGACCGGGCAGUGCUGUU [whbob_SS_Tryp_B_t25],apparent KD of K4 kissing-loop reporter,input ligand: FMN 200 uM,468 nM
same,apparent KD of K4 kissing-loop reporter,input ligand: arginine 13.2 mM,465 nM
same,apparent KD of K4 kissing-loop reporter,input ligand: none,499 nM
same,apparent KD of K4 kissing-loop reporter,[1],410 nM
same,apparent KD of K4 kissing-loop reporter,[2],289 nM
CUGGGUUGACGAAAAGUCAACAAAAGAGAAGGAGCGCACGAAAGUGCAGGUAGGUCGCUCAAUCCAGUGAUGUUGGGUCAUCCAG [#SwitchBubble 14 #K4Late],apparent KD of K4 kissing-loop reporter,input ligand: FMN 200 uM,568 nM
same,apparent KD of K4 kissing-loop reporter,input ligand: arginine 13.2 mM,580 nM
same,apparent KD of K4 kissing-loop reporter,input ligand: none,800 nM
same,apparent KD of K4 kissing-loop reporter,[1],1110 nM
same,apparent KD of K4 kissing-loop reporter,[2],869 nM
CCAUGAGGAUAAGAUGAUAUCAUAACAGAAGGAGCGAGUGAUAACUCAGGUAGGUCGCUGAAUUUAUCGAGUGAUGUUCGAUGAA [Same State Arginine A GF11],apparent KD of K4 kissing-loop reporter,input ligand: FMN 200 uM,194 nM
same,apparent KD of K4 kissing-loop reporter,input ligand: arginine 13.2 mM,164 nM
same,apparent KD of K4 kissing-loop reporter,input ligand: none,193 nM
same,apparent KD of K4 kissing-loop reporter,[1],179 nM
same,apparent KD of K4 kissing-loop reporter,[2],164 nM
UGUCAUUGGUCGGCCGCCACUAGGACCGGGUUUUACCUAGUGAUGUUAGUAUAAACGGCCGCCACUAGGACCGGGACCGAUGACU [KL-SSTryp-B24 #DoubleAptamer],apparent KD of K4 kissing-loop reporter,input ligand: FMN 200 uM,846 nM
same,apparent KD of K4 kissing-loop reporter,input ligand: arginine 13.2 mM,447 nM
same,apparent KD of K4 kissing-loop reporter,input ligand: none,547 nM
same,apparent KD of K4 kissing-loop reporter,[1],434 nM
same,apparent KD of K4 kissing-loop reporter,[2],122 nM
GGAUAACAGGCAGGAUAUGCUUAGUAGUAAGGCCAUAUAUACGUAUAGAGUGAUGUUUUGUACAAGGCAGAAGGGCUAAAUCCAU [FMN B Excl V2 (+4G)],apparent KD of K4 kissing-loop reporter,input ligand: FMN 200 uM,536 nM
same,apparent KD of K4 kissing-loop reporter,input ligand: arginine 13.2 mM,240 nM
same,apparent KD of K4 kissing-loop reporter,input ligand: none,421 nM
same,apparent KD of K4 kissing-loop reporter,[1],393 nM
same,apparent KD of K4 kissing-loop reporter,[2],254 nM
AAGUCACAGGCAGGAUAUGCUUAGUAAUAAGGCCAUAUAUACGUAUAGAGUGAUGUUUUGUACCAGGCAGAAGGGCUACAUCCGU [FMN B Excl V3 (+2GCs)],apparent KD of K4 kissing-loop reporter,input ligand: FMN 200 uM,876 nM
same,apparent KD of K4 kissing-loop reporter,input ligand: arginine 13.2 mM,503 nM
same,apparent KD of K4 kissing-loop reporter,input ligand: none,882 nM
same,apparent KD of K4 kissing-loop reporter,[1],650 nM
same,apparent KD of K4 kissing-loop reporter,[2],597 nM
GCCGUACGCAUGGAUACCAGCAAGUAUAUAUGCUAGUGAUGUUAGCGCUAUGCGAUGCGGUGCCCUUGGCAGCCAUGCGUACGGC,apparent KD of K4 kissing-loop reporter,input ligand: FMN 200 uM,129 nM
same,apparent KD of K4 kissing-loop reporter,input ligand: arginine 13.2 mM,85.2 nM
same,apparent KD of K4 kissing-loop reporter,input ligand: none,105 nM
same,apparent KD of K4 kissing-loop reporter,[1],106 nM
same,apparent KD of K4 kissing-loop reporter,[2],102 nM
UAUGGUCCAUCAAGAGUAGUGAUGUUAUAACGAGGACCGGUACGGCCGCCACUCGAGGCCGUAAUACUCGAUCGGAUGCUGAGUG [theeternabot_exclusion_KL_Trp_A_28],apparent KD of K4 kissing-loop reporter,input ligand: FMN 200 uM,815 nM
same,apparent KD of K4 kissing-loop reporter,input ligand: arginine 13.2 mM,819 nM
same,apparent KD of K4 kissing-loop reporter,input ligand: none,1180 nM
same,apparent KD of K4 kissing-loop reporter,[1],794 nM
same,apparent KD of K4 kissing-loop reporter,[2],816 nM
UAGUGAUGCUAUGUUAGGUUUUUUAGGGAAGGAGCGCCAAAGAAGGCAGGUAGGUCGCCCUAUAUUCCCAGUGAUGUUGGGUAUU [Skye_Ex_AA],apparent KD of K4 kissing-loop reporter,input ligand: FMN 200 uM,64.8 nM
same,apparent KD of K4 kissing-loop reporter,input ligand: arginine 13.2 mM,50.6 nM
same,apparent KD of K4 kissing-loop reporter,input ligand: none,74.9 nM
same,apparent KD of K4 kissing-loop reporter,[1],93.6 nM
same,apparent KD of K4 kissing-loop reporter,[2],65.5 nM
UGAACUUUUGCUAGGAACCGUCUAGCUCUUUAGGAUAUCUGGAAACAGAGAAGGAAAGACCUACAGAGUGAUGUUCUGCGUUCAU,apparent KD of K4 kissing-loop reporter,input ligand: FMN 200 uM,383 nM
same,apparent KD of K4 kissing-loop reporter,input ligand: arginine 13.2 mM,268 nM
same,apparent KD of K4 kissing-loop reporter,input ligand: none,316 nM
same,apparent KD of K4 kissing-loop reporter,[1],316 nM
same,apparent KD of K4 kissing-loop reporter,[2],263 nM
